Among the data in article PMC10397247 are interaction score values, retold here.

For one assay, the target named is T1, 4H1348-bA.
T1 chain: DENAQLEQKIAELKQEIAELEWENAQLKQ
Description: two-hybrid library CCNG1.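 Also: natural log of median RNA to DNA barcode read ratio; higher means stronger binding.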

The target of another assay is T2, 4H3497-bA.
T2 chain: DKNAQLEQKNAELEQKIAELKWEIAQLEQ
Description: two-hybrid library CCNG1.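 Also: natural log of median RNA to DNA barcode read ratio; higher means stronger binding.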

The next assay deals with T3, 4H3112-bA.
T3 chain: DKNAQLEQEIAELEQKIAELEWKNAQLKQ
Nature of the assay: two-hybrid library CCNG1.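 Also: natural log of median RNA to DNA barcode read ratio; higher means stronger binding.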

For a further assay, the target named is T4, 4H346-bA.
T4 chain: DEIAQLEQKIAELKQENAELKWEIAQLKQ
Description: two-hybrid library CCNG1.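 Also: natural log of median RNA to DNA barcode read ratio; higher means stronger binding.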

Another assay deals with T5, 4H2673-bA.
T5 chain: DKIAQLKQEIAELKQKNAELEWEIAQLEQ
Nature of the assay: two-hybrid library CCNG1.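 Also: natural log of median RNA to DNA barcode read ratio; higher means stronger binding.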

A further assay addresses T6, P8SHb.
T6 chain: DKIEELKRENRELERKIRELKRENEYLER
Description: two-hybrid library CCNG1.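 Also: natural log of median RNA to DNA barcode read ratio; higher means stronger binding.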

Another assay addresses T7, 4H170-bA.
T7 chain: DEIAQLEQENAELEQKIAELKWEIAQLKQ
Description: two-hybrid library CCNG1.

For another assay, the target named is T8, O6.
T8 chain: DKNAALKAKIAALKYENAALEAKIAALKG
Nature of the assay: two-hybrid library CCNG1.

The next assay has as its target T9, 4H754-bA.
T9 chain: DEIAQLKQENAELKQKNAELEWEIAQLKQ
Description: two-hybrid library CCNG1.

For a further assay, the target named is T10, 4H1081-bA.
T10 chain: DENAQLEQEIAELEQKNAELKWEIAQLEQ
Description: two-hybrid library CCNG1. Particulars: mean of both orientations.

The next assay concerns the target T11, 4H3010-bA.
T11 chain: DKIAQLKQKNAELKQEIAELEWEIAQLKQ
Description: two-hybrid library CCNG1.

In another assay the target is T12, 4H457-bA.
T12 chain: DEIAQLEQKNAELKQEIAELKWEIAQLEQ
Description: two-hybrid library CCNG1.

A further assay concerns the target T13, 4H591-bA.
T13 chain: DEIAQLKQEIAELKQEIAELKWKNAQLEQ
Description: two-hybrid library CCNG1.

The target in another assay is T14, 4H1158-bA.
T14 chain: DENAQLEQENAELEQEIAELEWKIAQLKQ
Description: two-hybrid library CCNG1.

Another assay deals with T15, 4H953-bA.
T15 chain: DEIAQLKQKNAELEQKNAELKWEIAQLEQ
Nature of the assay: two-hybrid library CCNG1.

A further assay addresses T16, 4H118-bA.
T16 chain: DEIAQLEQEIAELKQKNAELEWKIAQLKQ
Description: two-hybrid library CCNG1.

The next assay addresses T17, 4H2702-bA.
T17 chain: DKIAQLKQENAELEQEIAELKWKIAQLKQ
Description: two-hybrid library CCNG1.

The next assay deals with T18, 4H3926-bA.
T18 chain: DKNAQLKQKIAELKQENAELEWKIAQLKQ
Nature of the assay: two-hybrid library CCNG1. Particulars: mean of both orientations.

The target of a further assay is T19, 4H1985-bA.
T19 chain: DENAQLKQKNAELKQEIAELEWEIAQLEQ
Description: two-hybrid library CCNG1.

For a further assay, the target named is T20, 4H683-bA.
T20 chain: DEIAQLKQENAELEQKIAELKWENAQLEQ
Description: two-hybrid library CCNG1.

The next assay concerns the target T21, 4H626-bA.
T21 chain: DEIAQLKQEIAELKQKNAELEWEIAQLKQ
Nature of the assay: two-hybrid library CCNG1.

For another assay, the target named is T22, 4H918-bA.
T22 chain: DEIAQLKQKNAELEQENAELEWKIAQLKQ
Description: two-hybrid library CCNG1.

The target in the next assay is T23, 4H1544-bA.
T23 chain: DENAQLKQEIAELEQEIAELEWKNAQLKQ
Nature of the assay: two-hybrid library CCNG1.

Another assay has as its target T24, 4H3613-bA.
T24 chain: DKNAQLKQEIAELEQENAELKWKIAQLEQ
Description: two-hybrid library CCNG1.

For another assay, the target named is T25, 4H3162-bA.
T25 chain: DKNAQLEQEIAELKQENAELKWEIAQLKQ
Nature of the assay: two-hybrid library CCNG1.

The target in a further assay is T26, 4H112-bA.
T26 chain: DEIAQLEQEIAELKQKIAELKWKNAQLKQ
Nature of the assay: two-hybrid library CCNG1.

The next assay deals with T27, 4H3462-bA.
T27 chain: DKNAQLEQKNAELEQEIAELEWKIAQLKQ
Description: two-hybrid library CCNG1.

A further assay has as its target T28, 4H780-bA.
T28 chain: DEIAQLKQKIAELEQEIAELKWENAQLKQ
Nature of the assay: two-hybrid library CCNG1.

The next assay has as its target T29, 4H1710-bA.
T29 chain: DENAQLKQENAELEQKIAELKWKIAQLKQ
Nature of the assay: two-hybrid library CCNG1.

A further assay addresses T30, 4H4073-bA.
T30 chain: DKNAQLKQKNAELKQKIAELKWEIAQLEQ
Nature of the assay: two-hybrid library CCNG1.

A further assay has as its target T31, 4H968-bA.
T31 chain: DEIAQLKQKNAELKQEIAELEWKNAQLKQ
Description: two-hybrid library CCNG1.

The target of the next assay is T32, 4H2586-bA.
T32 chain: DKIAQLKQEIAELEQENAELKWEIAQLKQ
Nature of the assay: two-hybrid library CCNG1.

The target in another assay is T33, 4H3277-bA.
T33 chain: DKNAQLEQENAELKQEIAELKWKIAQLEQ
Description: two-hybrid library CCNG1.

Another assay has as its target T34, 4H855-bA.
T34 chain: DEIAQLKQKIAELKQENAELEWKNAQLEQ
Description: two-hybrid library CCNG1.

A further assay has as its target T35, 4H1899-bA.
T35 chain: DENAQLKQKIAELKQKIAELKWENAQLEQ
Nature of the assay: two-hybrid library CCNG1.

For another assay, the target named is T36, 4H1831-bA.
T36 chain: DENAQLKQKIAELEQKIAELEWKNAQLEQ
Nature of the assay: two-hybrid library CCNG1.

Another assay deals with T37, 4H797-bA.
T37 chain: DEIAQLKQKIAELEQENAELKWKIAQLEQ
Nature of the assay: two-hybrid library CCNG1.

In the next assay the target is T38, 4H575-bA.
T38 chain: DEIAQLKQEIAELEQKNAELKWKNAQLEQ
Description: two-hybrid library CCNG1.

A further assay addresses T39, 4H3298-bA.
T39 chain: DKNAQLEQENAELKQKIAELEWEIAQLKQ
Description: two-hybrid library CCNG1.

For a further assay, the target named is T40, 4H2627-bA.
T40 chain: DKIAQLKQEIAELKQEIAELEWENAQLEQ
Nature of the assay: two-hybrid library CCNG1.

The target of another assay is T41, 4H3175-bA.
T41 chain: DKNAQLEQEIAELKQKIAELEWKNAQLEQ
Description: two-hybrid library CCNG1.

The target of the next assay is T42, 4H906-bA.
T42 chain: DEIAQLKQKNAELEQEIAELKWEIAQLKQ
Description: two-hybrid library CCNG1.

In another assay the target is T43, 4H3427-bA.
T43 chain: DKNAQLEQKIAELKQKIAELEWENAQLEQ
Nature of the assay: two-hybrid library CCNG1.

A further assay addresses T44, 4H1373-bA.
T44 chain: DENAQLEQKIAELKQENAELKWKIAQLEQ
Description: two-hybrid library CCNG1.

Another assay has as its target T45, 4H3628-bA.
T45 chain: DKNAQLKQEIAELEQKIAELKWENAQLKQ
Description: two-hybrid library CCNG1.

A further assay concerns the target T46, Core_IIII-es_KEKK.
T46 chain: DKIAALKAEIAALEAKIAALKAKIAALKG
Description: two-hybrid library CCmax. Particulars: mean of both orientations.

With DENAQLEQEIAELEQKNAELKWEIAQLEQ [4H1081-bA], the interaction score with 4H1348-bA was -0.834; with 4H3497-bA, -1.1; with 4H3112-bA it was -0.897; in the assay with 4H346-bA, -0.753; in the assay with 4H2673-bA, -0.717; with P8SHb it was -1.25. In addition, the interaction score was -0.98 in the assay with 4H170-bA; 1.04 with O6; -0.461 with 4H754-bA; -1.09 with 4H1081-bA; -0.178 in the assay with 4H3010-bA; -0.799 in the assay with 4H457-bA. Further, the interaction score is -0.855 with 4H591-bA; -1.28 with 4H1158-bA; -1.23 with 4H953-bA; -0.618 with 4H118-bA; 0.457 in the assay with 4H2702-bA; 2.57 in the assay with 4H3926-bA. In addition, the interaction score in the assay with 4H1985-bA is -0.96; with 4H683-bA, -0.217; with 4H626-bA it was -0.689; with 4H918-bA it was -0.671; with 4H1544-bA, -0.272; with 4H3613-bA, -0.495. For the same molecule, the interaction score with 4H3162-bA is -0.581; in the assay with 4H112-bA it was -0.18; with 4H3462-bA, -0.859; with 4H780-bA it was -0.865; in the assay with 4H1710-bA, -1.02; in the assay with 4H4073-bA, -0.497. The interaction score is -1.8 in the assay with 4H968-bA; -1 in the assay with 4H2586-bA; -0.575 with 4H3277-bA; -0.154 in the assay with 4H855-bA; -0.763 with 4H1899-bA; -0.839 with 4H1831-bA. Also, the interaction score is -1.17 with 4H797-bA; -1.21 with 4H575-bA; -0.916 with 4H3298-bA; -0.693 with 4H2627-bA; -1.47 in the assay with 4H3175-bA; -0.875 in the assay with 4H906-bA. Also, the interaction score is -0.645 with 4H3427-bA, -0.306 with 4H1373-bA and -1.07 with 4H3628-bA.

On to DEIAALEAKIAALKAEIAALEAEIAALEG [Core_IIII-es_EKEE], for which, in the assay with Core_IIII-es_KEKK, the interaction score was determined as 1.78.
